What was measured:
human MAGEA12 = target: T1, human MAGEA12 (human, UniProt P43365 1-314); test: IHC, FFPE CHO cells transfected with human MAGEA12
T1 construct: whole, on cells; FFPE cell pellets
Description: (§1) Negative control cells included parental Chinese hamster ovary (CHO) cells, CHO cells stably transfected with mCherry Vector Control (minus Myc/DDK tags), CHO cells stably transfected with mCherry-human DCAF4L2 (plus Myc/DDK tags). The cross-reactivity control cells included CHO cells transfected with mCherry Vector Control (plus Myc/DDK tags) with one of the human MAGE-B or MAGE-A family members (MAGEA1, MAGEA2, MAGEA3, MAGEA4, MAGEA5, MAGEA6, MAGEA8, MAGEA9, MAGEA11, MAGEA12, MAGEB1, MAGEB3, MAGEB4, MAGEB5, MAGEB6, MAGEB10, MAGEB16, MAGEB17, MAGEB18). Positive control cell lines included CHO cells transfected with mCherry Vector (plus Myc/DDK tags) with human MAGE-B2 or CHO cells transfected with mCherry Vector (open reading frame (ORF); minus Myc/DDK tags) with human MAGEB2, and thirteen human cancer cell lines with known endogenous RNA expression level of MAGEB2 (U266B1, T98G, KMM-1, U20S, CFPAC-1, SCaBER, UACC-257, CFPAC-1, VMRC-LCD, NCI-H1703, UM-UC-3, NCI-H1395, NCIH82).
(§2) FFPE samples were sectioned at 4 μm and mounted on positive charged glass slides. After mounting, paraffin sections were air-dried at room temperature. FFPE TMA samples were received as freshly sectioned and mounted on glass slides. The fully automated IHC assay was performed on a Discovery Ultra Stainer (Ventana Medical Systems, Tucson, AZ) using Ventana Anti-Rabbit HQ (cat #760-4815), Ventana Anti-HQ HRP (cat #760-4820), and Ventana Antibody Diluent with Casein (cat #760-219) (Ventana Medical Systems, Tucson, AZ). The slides were baked on the Discovery Ultra Stainer at 60° C. for 8 minutes, de-paraffinized with Ventana Discovery wash (cat #950-510) for 3 cycles (8 minutes each) at 69° C., and underwent cell conditioning (target retrieval) at 95° C. for 16 minutes (for cell arrays) or 32 minutes (tissues or TMAs) in CC1 buffer (cat #950-500). Following this, slides were incubated with Background Sniper (cat #BS966M, Biocare Medical, Pacheco, CA) in a Ventana Option Prep kit (cat #771-751) for 28 minutes, incubated with CM inhibitor (a part of the Ventana DAB kit cat #760-159) for 12 minutes, and incubated for 1 h at RT with MAGE-B2 antibody diluted with Ventana diluent with Casein in a Ventana Prep kit (cat #770-001) (working concentration at 0.1 μg/ml for cell pellet, or 1-5 ug/ml for tissues) or with a matched concentration of isotype control Rabbit IgG1 antibody.

human MAGEB1 = target: T2, human MAGEB1 (human, UniProt P43366 1-347); test: IHC, FFPE CHO cells transfected with human MAGEB1
T2 construct: whole, on cells; Transfected into CHO cells with Myc/DDK tags
T2 sequence (looked up): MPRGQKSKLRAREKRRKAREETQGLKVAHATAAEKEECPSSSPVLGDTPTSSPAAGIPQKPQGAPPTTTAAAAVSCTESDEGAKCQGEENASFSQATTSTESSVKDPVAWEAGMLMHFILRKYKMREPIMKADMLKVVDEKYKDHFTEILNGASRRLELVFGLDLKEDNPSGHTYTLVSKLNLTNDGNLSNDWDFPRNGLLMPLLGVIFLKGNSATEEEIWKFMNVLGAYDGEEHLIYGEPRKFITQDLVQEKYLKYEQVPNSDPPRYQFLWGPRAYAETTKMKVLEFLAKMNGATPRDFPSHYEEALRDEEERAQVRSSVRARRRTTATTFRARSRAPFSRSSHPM
Description: as §1, §2

human MAGEB16 = target: T3, human MAGEB16 (human, UniProt A2A368 1-324); test: IHC, FFPE CHO cells transfected with human MAGEB16
T3 construct: whole, on cells; FFPE cell pellets
T3 sequence (looked up): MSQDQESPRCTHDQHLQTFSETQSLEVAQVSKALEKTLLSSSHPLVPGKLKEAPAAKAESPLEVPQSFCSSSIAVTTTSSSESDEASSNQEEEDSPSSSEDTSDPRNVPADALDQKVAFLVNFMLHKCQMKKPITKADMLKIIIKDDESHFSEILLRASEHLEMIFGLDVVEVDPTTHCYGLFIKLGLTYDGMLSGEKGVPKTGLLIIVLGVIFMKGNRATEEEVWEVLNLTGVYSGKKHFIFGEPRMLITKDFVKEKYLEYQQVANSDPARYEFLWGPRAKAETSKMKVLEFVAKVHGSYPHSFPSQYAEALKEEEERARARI
Description: as §1, §2

Measured: binding result

T1 sequence (P43365 whole entry): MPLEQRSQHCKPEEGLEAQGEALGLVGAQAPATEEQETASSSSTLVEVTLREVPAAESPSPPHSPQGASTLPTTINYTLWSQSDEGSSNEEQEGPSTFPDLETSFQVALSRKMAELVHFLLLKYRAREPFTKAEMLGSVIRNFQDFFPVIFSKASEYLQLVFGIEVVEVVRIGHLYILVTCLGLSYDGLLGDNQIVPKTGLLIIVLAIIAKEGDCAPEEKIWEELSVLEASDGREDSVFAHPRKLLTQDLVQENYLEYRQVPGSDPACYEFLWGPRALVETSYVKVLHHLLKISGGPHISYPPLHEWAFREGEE

B1: 1I14 (antibody, V domains shown)
VH: QSVEESGGRLVTPGTPLTLTCTISGFSLSSYAMSWVRQAPGKGLEWIGSIGGGGSAVYASWAKGRFTISKTSTTVDLRITSPTTEDTAMYFCGRGFYSIDLWGPGTLVTVSS
VL: DVVMTQTPASVEATVGGTVTIKCQSSQSVYDNNALAWYQQNAGQRPRLLIYGASTLASGVPSRFSASGSGTEFTLTISDLECADAATYYCQCTYYVSSYQNDFGGGTEVVVKG
notes: also called MAGE-B2 (1i14)
no binding (tested: 0.1 µg/ml): all assays above

B2: 1C3 (antibody, V domains shown)
VH: QSLEESGGGLVQPEGSLTLTCTAFGVTLTNYYICWVRQAPGKGLEWVGCIDNANGRTYYASWAKGRFTISKTSSTTGTLQMTSLTAADTATYFCARSLATPLWGPGTLVTVSS
VL: DIVMTQTPSSVEAAVGGTVTIKCQASQNISSYLAWYQQKPGQPPKLLIYRASTLASGVPSRFKGSGSGTQFTLTISDLECADAATYYCQSYDDSRSSNFFYAFGGGTEVVVKG
notes: also called MAGE-B2 (IC3); anti-MAGEB2 antibody 1C3
no binding (tested: 0.1 µg/ml): all assays above

B3: 4G17 (antibody, IgG1, V domains shown)
VH: QSLEESGGGLVQPEGSLTLTCTASGVTLSNYYICWVRQAPGKGLEWIGCIDNVNGRTYYASWAKGRFTISKTSSTTGTLQMTSLTAADTATYFCARSLATPLWGPGTLVTVSS
VL: DIVMTQTPASVEAAVGGTVTIKCQASQNIDSYLAWYQQKPGQPPKLLIYRASTLASGVPSRFKGSGSGTEFTLTISDLECADAATYYCQSYDDSRSSSFFYGFGGGTEVVVK
notes: Rabbit monoclonal IgG1; Tested as supernatant and as small batch purified antibody; also called MAGE-B2 (4G17); anti-MAGEB2 antibody 4G17
no binding (tested: 0.1 µg/ml): all assays above

B4: 1J15 (antibody, IgG1, V domains shown)
VH: QSLEESGGGLVQPEGSLTLTCTAFGFTLNNYYICWVRQAPGKGLEWIACIDNANGRTYYASWAKGRFTISKTSSTTVTLQMTSLTAADTATYFCARSLSTPLWGPGTLVTVSS
VL: DIVMTQTPASVEAAVGGTVTIKCQASQSISSYLSWYQQKPGQPPKLLIYRASTLASGVPSRFRGSGSGTQFTLTISDLECADAATYYCQSYDDSSDNNFFYGFGGGTEVVVR
notes: Rabbit monoclonal IgG1; Tested as supernatant and as small batch purified antibody; also called MAGE-B2 (IJ15); anti-MAGEB2 antibody 1J15
no binding (tested: 0.1 µg/ml): all assays above

— patent US20250282887A1 (Amgen, published 2025)
